To fix the notation:
B1: Arf-GAP with Rho-GAP domain, ANK repeat and PH domain-containing protein 3 (Mus musculus), Q8R5G7 (parent)
chain: MAAPQDLDIAVWLALVHLEQYADTFRRHGLATAGAAQHLGHEELRHLGISATGHRKRILRLLRAGSAEGFLDSHLDNTMEPTPSPAPDAQPPKPVPKPRTVFGLSNPATAQRPGLSPIFWDPEVSRNSECTQRSSPLLPSSSEQPSVPNTMEMMPNAIYFGLDLRGRAQAAQDVTPDSSQATVPTPAFRPTTGTVHIMDPGCLYYGVQPVGIPGASDRRDGRGVCQERAEHRQDLETREDAGYASLELPGDSILSLPTQDAETSDDLISPYASFSSTADRPVPLLSGWLDKLSPQGNYVFQRRFVQFNGRSLMYFGSDKDPFPKGVIPLTAIEMTRSSKDNKFQVITGQRVFVFRTESEAQRDLWCSTLQSCLKEQRLLGHPRPPHPPRPLRTGTLELRGHKAKVFAALIPGELALYKSEQAFSLGIGICFIELQGCSVRETKSRSFDLLTPHRCFSFTAESGGARQSWAAALQEAVTETLSDYEVAEKVWSNPANRHCADCRASRPDWAAVNLGVVICKQCAGQHRALGSGISKVQSLKLDTSVWSNEIVQLFIVLGNDRANCFWAGALPPGEGLHPDSAPGPRGEFISRKYKLGLFRKPHPRHPDHSQLLQALCAAMAGPNLLKNMAQLLCVETSEGEEPLSPSALNGSLLSLLPSDSPGVYNEVVVPATYRGFLYCGSISNKAGAPPLRRGRDAPPRLWCVLGAALEMFASESSPEPLSLLQPQDIVCLGVSPPPADPGDLDRFPFSFELILTGGRIQHFATDGADSLEAWISAVGKWFSPLSCHQLLGPGLLRMGRLWLRSPSHAGLAPGLWLSGFGLLRGDHLFLCPAPGPGPPAPEDMVHLRRLQEISVVSAADTPDKKEHLVLVETGRTLYLQGEGRLDFAAWNTAIGGAAGGGGTGLQEQQMSRGDIPIIVDACISFVTQHGLRLEGVYRKGGARARSLRLLAEFRRDARSVKLRPREHFVEDVTDTLKRFFRELDDPVTSARLLPRWREAAELSQKNQRLEKYKEVISCLPRVNRRTLATLIGHLYRVQKCASLNQMCTRNLALLFAPSVFQTDGRGEHEVRVLQELIDGYISVFDIDSDQAAQIDLEVSLITTWKDVQLSQAGDLIMEVYIEQQLPDNCVTLKVSPTLTAEELTNQVLEMRGAASGTDLWVTFEILEHGELERPLHPKEKVLEQALQWCQLPEPCSASLLLRKVSMAHAGCLFTGVRRESPRVGLLRCREEPPRLLGNRFQERFFLVRGRCLLLLKEKKSSKPEREWSLEGAKVYLGIRKKLKPPTLWGFTLILEKMHLCLSCMDEEEMWDWTTSILKAQHDDQQSVVLRRRSSSDLARQKFGTMPLLPIRGDDSGATLLSANQTLRRLHNRRTLSMFFPMKSPQGSVEEQDELEEPVYEEPVYEEVGAFPELTKDTTFSSTWEWSAKSDPSLTSQRSFDQPPLSKASMLGHEERIPDPPPGPPSKSSSQARGSLEEQLLQELNNLILRKGEPASCPESSSQPTSPQAPSPTSLPTPTPSLPTQPPCTSNPPSSQPLT

Variants of B1 are the subject of this test. The conditions noted are these: with src_human SRC.
For Y1399F;Y1404F, the “effect of a mutation on the interaction” value was “decreasing interaction”.

For the origin of these results see IntAct's records for PubMed 15546919.
